Results taken from publication doi:10.1101/742957.
Where “and” joins values, the source holds several entries; their conditions need not be identical. Equal entries are not always repeated.

Molecular target: Recombinant human transferrin (human) (UniProt P02787)
Assay: SEC-MALS

Recombinant human transferrin (from UniProt P02787 20-698) (natural protein)
percent dimer: 12% | percent trimer: 2% | stoichiometry N: 2 and 3
